# Experimental data: patent US20110286970A1
# How the values were obtained:
# [1] = target: wild type human α-synuclein (human) (UniProt P37840); assay: cell-based or functional assay
# [2] = target: 12 amino acid fragment corresponding to amino acids 71-82 of human α-synuclein (human); assay: cell-based or functional assay
substance,measurement,setting,value
"M13 filamentous phage (wild-type, prepared with M13K07 helper phage)",ELISA of α-synuclein oligomers in the insoluble fraction of SH-SY5Y cells,[1],40 to 50 % reduction
same,Thioflavine T (Tht) fluorescence emission at 480 nm of the pre-aggregated peptide,[2],43 % reduction
